B1: Her2-specific antibody heavy chain fusion to ULBP3 α1-α2 variant R162G (antibody, part only; not given: Anti-HER2 heavy and light chains, not shown: another chain or arm of the molecule; small tags and cut ends)
chain: AAEPHSLWYNFTIIHLPRHGQQWCEVQSQVDQKNFLSYDCGSDKVLSMGHLEEQLYATDAWGKQLEMLREVGQRLRLELADTELEDFTPSGPLTLQVRMSCESEADGYIRGSWQFSFDGRKFLLFDSNNRKWTVVHAGARRMKEKWEKDSGLTTFFKMVSMGDCKSWLRDFLMHRKKRLEPTAP
B2: Her2-specific antibody heavy chain fusion to ULBP2 α1-α2 variant R80W (antibody, part only; not given: Anti-HER2 heavy and light chains, not shown: another chain or arm of the molecule; small tags and cut ends)
chain: AAEPHSLSYDITVIPKFRPGPRWCAVQGQVDEKTFLHYDCGNKTVTPVSPLGKKLNVTTAWKAQNPVLREVVDILTEQLWDIQLENYTPKEPLTLQARMSCEQKAEGHSSGSWQFSFDGQIFLLFDSEKRMWTTVHPGARKMKEKWENDKVVAMSFHYFSMGDCIGWLEDFLMGMDSTLEPSAGAP

Biological target: human NKG2D (Example 6 binding ELISA) (human) (UniProt P26718)
Test: binding ELISA of the HER2 antibody heavy chain fusion on human NKG2D

human NKG2D (Example 6 binding ELISA) (human), sequence (P26718 78-216 limits assumed): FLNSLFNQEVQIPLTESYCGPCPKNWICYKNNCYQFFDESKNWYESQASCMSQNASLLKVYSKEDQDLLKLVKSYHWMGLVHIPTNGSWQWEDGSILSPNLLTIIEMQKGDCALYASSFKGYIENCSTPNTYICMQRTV

Row | Binder | EC50 (read off the curve) [nM]
1 | B1 | 0.4
2 | B2 | 1 to 2

— patent publication US20180134765A1
